The target in experiment [1] is purified HLA-DR DRB1*1302 (human). Put plainly: competition with 125I-labelled reference peptide, purified HLA.
Experiment [2] concerns the target purified HLA-DR DRB1*0101 (human). The description is as above.
Experiment [3] addresses purified HLA-DR DRB1*0404 (human). The experiment is described as above.
The target in experiment [4] is purified HLA-DR DRB5*0101 (human). The experiment is described as above.
The target in experiment [5] is purified HLA-DR DRB1*1101 (human). The experiment is described as above.
Experiment [6] concerns the target purified HLA-DR DRB1*0405 (human). Described as above.
The target of experiment [7] is purified HLA-DR DRB1*0301 (human). The experiment is described as above.
Experiment [8] deals with purified HLA-DR DRB1*1501 (human). The description is as above.
In experiment [9] the target is purified HLA-DR DRB1*0401 (human). The description is as above.
The target in experiment [10] is purified HLA-DR DRB4*0101 (human). Described as above.
Experiment [11] has as its target HLA-DR DRB1*1501 (human). Put plainly: competition assay, purified HLA, inhibition of 125I-labelled reference peptide.
In experiment [12] the target is HLA-DR DRB4*0101 (human). The experiment is described as above.
Experiment [13] has as its target HLA-DR DRB1*1302 (human). The experiment is described as above.
Experiment [14] deals with HLA-DR DRB1*0401 (human). The experiment is described as above.
The target of experiment [15] is HLA-DR DRB1*0101 (human). The experiment is described as above.
The target in experiment [16] is HLA-DR DRB1*0301 (human). Put plainly: competition vs 125I-labeled peptide, purified HLA.
Experiment [17] has as its target HLA-DR DRB1*1302 (human).
For experiment [18], the target named is HLA-DR DRB1*0404 (human).
Experiment [19] deals with HLA-DR DRB1*0401 (human).
The target of experiment [20] is HLA-DR DRB1*0101 (human).
Experiment [21] addresses HLA-DR DRB1*1501 (human). Kind of experiment: competition with 125I-labelled peptide, purified HLA.
The next experiment concerns the target HLA-DR DRB1*1101 (human). The description is as above.
Experiment [22] concerns the target HLA-DR DRB4*0101 (human). The experiment is described as above.
For a further experiment, the target named is HLA-DR DRB1*0701 (human). The experiment is described as above.
The target of experiment [23] is HLA-DR DRB1*1302 (human). The experiment is described as above.
Experiment [24] addresses HLA-DR DRB1*0404 (human). The description is as above.
Experiment [25] concerns the target HLA-DR DRB1*0401 (human). The experiment is described as above.
The target in experiment [26] is HLA-DR DRB1*0101 (human). The experiment is described as above.
The target of a further experiment is HLA-DR DRB5*0101 (human). Described as above.
For another experiment, the target named is HLA-DR DRB1*0802 (human). Described as above.
The target in experiment [27] is purified HLA DRB1*1302 (human). Put plainly: competitive inhibition of 125I-labeled peptide binding to purified HLA.
Experiment [28] deals with purified HLA DRB1*1501 (human). Described as above.
In experiment [29] the target is purified HLA DRB4*0101 (human). The description is as above.
For experiment [30], the target named is purified HLA DRB1*0405 (human). The experiment is described as above.
Experiment [31] concerns the target purified HLA DRB1*0802 (human). Described as above.
Experiment [32] concerns the target purified HLA DRB1*0301 (human). Described as above.
The target in experiment [33] is purified HLA DRB1*1101 (human). The description is as above.
Experiment [34] concerns the target purified HLA DRB5*0101 (human). Described as above.
For experiment [35], the target named is purified HLA DRB1*0101 (human). The experiment is described as above.
Experiment [36] addresses purified HLA DRB1*0701 (human). Described as above.
The target in experiment [37] is purified HLA DRB1*0401 (human). The description is as above.
The target of experiment [38] is purified HLA DRB1*0404 (human). The experiment is described as above.
For experiment [39], the target named is purified HLA-DR DRB1*0701 (human). Kind of experiment: competition with 125I-labelled reference peptide, purified HLA.
Experiment [40] has as its target purified HLA-DR DRB1*0802 (human). Described as above.
The target of experiment [41] is HLA-DR DRB1*1501 (human). Put plainly: competition vs 125I-labeled peptide, purified HLA.
For experiment [42], the target named is HLA-DR DRB1*1302 (human). Put plainly: competition vs 125I-labeled peptide, purified HLA.
The target in experiment [43] is HLA-DR DRB1*0401 (human). Kind of experiment: competition vs 125I-labeled peptide, purified HLA.
The target in experiment [44] is HLA-DR DRB1*0101 (human). Kind of experiment: competition vs 125I-labeled peptide, purified HLA.
Experiment [45] addresses HLA-DR DRB4*0101 (human).
Experiment [46] has as its target HLA-DR DRB1*1501 (human). Kind of experiment: competition with 125I-labelled reference peptide on purified HLA-DR.
Experiment [47] addresses HLA-DR DRB1*0301 (human). The experiment is described as above.
The target of experiment [48] is HLA-DR DRB1*1302 (human). Described as above.
Experiment [49] concerns the target HLA-DR DRB1*0401 (human). The description is as above.
Experiment [50] has as its target purified HLA DRB1*1302 (human). Kind of experiment: competition with 125I-labelled reference peptide, purified HLA.
Experiment [51] addresses purified HLA DRB1*0405 (human). The description is as above.
The target of experiment [52] is purified HLA DRB1*0301 (human). The description is as above.
Experiment [53] addresses purified HLA DRB1*0101 (human). The description is as above.
In experiment [54] the target is purified HLA DRB1*0401 (human). The description is as above.
For experiment [55], the target named is purified HLA DRB1*0404 (human). The experiment is described as above.

The results in this text go back to patent US20080032921A1.

Like-named read-outs stand apart in the source and are kept apart here.

The IC50 is the concentration needed to halve the response being measured. A high value points to weaker potency in that assay.

B1: Flu.PB2.384 (peptide)
peptide: LIQLIVSGRDEQSIA
modifications: not checked
With B1, the IC50 in experiment [1] stood at 4680 nM; in experiment [2], 3220 nM; in experiment [3], 90 nM; in [4], 1720 nM; in experiment [5], 2010 nM; in experiment [6], 460 nM. Further, the IC50 in experiment [7] is 53 nM; in experiment [8] it was 420 nM; in [9] it was 83 nM; in experiment [10], 9.9 nM.

B2: Flu.NS2.87 (peptide)
peptide: DILMRMSKMQLGSSS
modifications: not checked
Consider B2, for which the IC50 with HLA-DR DRB1*1501 (human) [11] came to 748 nM; with HLA-DR DRB4*0101 (human) [12], 11 nM; with HLA-DR DRB1*1302 (human) [13] it was 423 nM; with HLA-DR DRB1*0401 (human) [14], 717 nM; in the experiment with HLA-DR DRB1*0101 (human) [15], 2140 nM.

B3: Flu.M1.154 (peptide)
peptide: CEQIADSQHRSHRQM
modifications: not checked
For B3, the 50% inhibitory concentration (IC50) in the experiment with HLA-DR DRB1*0301 (human) [16] was 804 nM; in the experiment with HLA-DR DRB1*0405 (human) it was above 10000 nM; in the experiment with HLA-DR DRB1*1302 (human) [17] it was above 10000 nM; with HLA-DR DRB1*0404 (human) [18], above 10000 nM; with HLA-DR DRB1*0401 (human) [19] it was above 10000 nM; with HLA-DR DRB1*0101 (human) [20] it was above 10000 nM.

B4: Flu.PB1.199 (peptide)
peptide: TKKMVTQRTIGKKKQ
modifications: not checked
As to B4, the IC50 with HLA-DR DRB1*1501 (human) [21] was determined as 9710 nM; with HLA-DR DRB1*1101 (human) it was 449 nM; in the experiment with HLA-DR DRB4*0101 (human) [22], 57 nM; in the experiment with HLA-DR DRB1*0701 (human), 14100 nM; with HLA-DR DRB1*1302 (human) [23], 6120 nM; with HLA-DR DRB1*0404 (human) [24], 62 nM. For the same molecule, the IC50 with HLA-DR DRB1*0401 (human) [25] came to 71 nM; with HLA-DR DRB1*0101 (human) [26], 1150 nM; with HLA-DR DRB5*0101 (human), 4.1 nM; in the experiment with HLA-DR DRB1*0802 (human), 55 nM.

B5: Flu.PA.127 peptide … (peptide)
peptide: RREVHIYYLEKANKI
modifications: not checked
For B5, the IC50 in [27] is 150 nM; in experiment [28], 4.5 nM; in experiment [29], 5 nM; in [30], 1490 nM; in experiment [31] it was 95 nM; in [32], above 10000 nM. For the same molecule, the IC50 was found to be 96 nM in experiment [33]; 25 nM in [34]; 34 nM in [35]; 23 nM in [36]; 63 nM in experiment [37]; 181 nM in experiment [38].

B6: Flu.PB2.690 (peptide)
peptide: ESAVLRGFLILGKED
modifications: not checked
In the case of B6, the IC50 in [2] came out at 8.4 nM; in experiment [39] it was 2470 nM; in experiment [3] it was 110 nM; in experiment [4] it was 303 nM; in experiment [5] it was 1030 nM; in [6] it was 7100 nM. The IC50 in experiment [8] came out at 39 nM; in experiment [9], 13200 nM; in experiment [40] it was 803 nM; in experiment [10], 1280 nM.

B7: Flu.HA.156 (peptide)
peptide: KSSFFRNVVWLIKKN
modifications: not checked
On to B7, for which the IC50 was 832 nM with HLA-DR DRB1*1501 (human) [41]; 20 nM with HLA-DR DRB1*1302 (human) [42]; 474 nM with HLA-DR DRB1*0401 (human) [43]; 46 nM in the experiment with HLA-DR DRB1*0101 (human) [44]; above 10000 nM in the experiment with HLA-DR DRB4*0101 (human) [45].

B8: Flu.NS2.125 (peptide)
peptide: VMRMGDLHSLQNRNG
modifications: not checked
Consider B8, for which the IC50 stood at 372 nM with HLA-DR DRB1*1501 (human) [11]; 8820 nM with HLA-DR DRB4*0101 (human) [12]; 1370 nM with HLA-DR DRB1*1302 (human) [13]; 448 nM in the experiment with HLA-DR DRB1*0401 (human) [14]; 249 nM in the experiment with HLA-DR DRB1*0101 (human) [15].

B9: Flu.NA.115 peptide … (peptide)
peptide: TQGALLNDKHSNGTVKD
modifications: not checked
As for B9, the IC50 in the experiment with HLA-DR DRB4*0101 (human) [45] was above 10000 nM; with HLA-DR DRB1*0101 (human) [20] it was above 10000 nM; in the experiment with HLA-DR DRB1*1501 (human) [46], 822 nM; in the experiment with HLA-DR DRB1*0301 (human) [47], 177 nM; in the experiment with HLA-DR DRB1*1302 (human) [48], 468 nM; in the experiment with HLA-DR DRB1*0401 (human) [49] it was 19000 nM.

B10: Flu.PB1.535 (peptide)
peptide: NNMINNDLGPATAQM
modifications: not checked
With B10, the IC50 was 477 nM in [50]; above 10000 nM in [51]; 527 nM in [52]; 3080 nM in [53]; 798 nM in experiment [54]; 1830 nM in experiment [55].

B11: Flu.PB1.590 (peptide)
peptide: AGLLVSDGGPNLYNI
modifications: not checked
As to B11, the IC50 in [50] was 105 nM; in experiment [51], above 10000 nM; in experiment [52], 107 nM; in experiment [53], 8120 nM; in experiment [54], 3000 nM; in experiment [55] it was 3490 nM.
